Laboratory results from patent US20230312698A1 (NANJING GENSCRIPT BIOTECH, published 2023).

T1: human Ang2 protein (R&D Systems, 623-AN-01M/CF; 623-AN/CF) (human, UniProt O15123 19-496)
T1 chain: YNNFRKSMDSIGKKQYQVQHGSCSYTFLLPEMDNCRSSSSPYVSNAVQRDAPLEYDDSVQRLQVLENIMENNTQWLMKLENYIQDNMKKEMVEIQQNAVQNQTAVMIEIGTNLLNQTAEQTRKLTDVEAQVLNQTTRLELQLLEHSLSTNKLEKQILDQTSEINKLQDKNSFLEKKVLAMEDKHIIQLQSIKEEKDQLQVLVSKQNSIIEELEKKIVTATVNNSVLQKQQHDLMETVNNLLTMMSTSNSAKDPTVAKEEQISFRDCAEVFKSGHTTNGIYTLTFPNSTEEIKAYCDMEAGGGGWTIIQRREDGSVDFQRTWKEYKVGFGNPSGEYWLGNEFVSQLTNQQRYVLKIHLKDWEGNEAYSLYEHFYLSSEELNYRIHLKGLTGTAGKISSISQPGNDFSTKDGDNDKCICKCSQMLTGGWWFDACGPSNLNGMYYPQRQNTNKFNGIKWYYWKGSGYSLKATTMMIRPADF

T2: human Ang2 protein (R&D Systems, 623-AN-01M/CF; 623-AN/CF) (human, UniProt O15123 19-496)
T2 construct: Bought recombinant protein; also called Ang2 proteins; angiopoietin-2
T2 sequence (looked up): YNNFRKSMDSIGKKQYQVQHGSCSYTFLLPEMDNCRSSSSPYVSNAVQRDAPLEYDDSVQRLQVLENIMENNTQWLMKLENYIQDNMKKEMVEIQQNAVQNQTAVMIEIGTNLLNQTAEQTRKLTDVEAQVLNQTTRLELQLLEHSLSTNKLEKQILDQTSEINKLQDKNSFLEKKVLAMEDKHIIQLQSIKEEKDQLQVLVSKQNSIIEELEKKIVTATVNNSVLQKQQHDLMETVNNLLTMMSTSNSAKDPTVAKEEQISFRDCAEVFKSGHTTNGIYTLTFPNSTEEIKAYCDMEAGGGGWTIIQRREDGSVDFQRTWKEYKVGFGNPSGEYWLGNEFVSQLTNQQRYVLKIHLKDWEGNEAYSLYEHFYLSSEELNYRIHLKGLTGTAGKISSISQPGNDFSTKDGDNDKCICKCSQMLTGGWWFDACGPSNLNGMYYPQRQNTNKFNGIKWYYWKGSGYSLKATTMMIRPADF

T3: membrane-anchored human Ang2 protein expressed on CHO-K1 cells (human, UniProt O15123 19-496)
T3 chain: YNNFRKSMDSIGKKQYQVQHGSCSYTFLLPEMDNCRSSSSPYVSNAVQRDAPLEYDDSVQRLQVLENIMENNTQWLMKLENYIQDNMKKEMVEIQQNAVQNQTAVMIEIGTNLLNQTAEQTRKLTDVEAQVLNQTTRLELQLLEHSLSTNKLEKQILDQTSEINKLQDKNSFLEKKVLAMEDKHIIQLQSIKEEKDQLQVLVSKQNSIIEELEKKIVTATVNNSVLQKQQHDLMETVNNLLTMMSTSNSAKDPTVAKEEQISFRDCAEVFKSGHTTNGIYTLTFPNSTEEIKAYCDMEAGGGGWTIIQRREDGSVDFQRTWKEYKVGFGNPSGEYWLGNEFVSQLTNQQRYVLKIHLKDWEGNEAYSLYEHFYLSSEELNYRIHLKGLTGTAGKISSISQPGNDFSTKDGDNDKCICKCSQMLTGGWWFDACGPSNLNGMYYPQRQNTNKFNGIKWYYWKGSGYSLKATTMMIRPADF

T4: membrane-anchored cyno Ang2 protein expressed on CHO-K1 cells (cyno, UniProt A0A2K5VNX6 19-496)
T4 chain: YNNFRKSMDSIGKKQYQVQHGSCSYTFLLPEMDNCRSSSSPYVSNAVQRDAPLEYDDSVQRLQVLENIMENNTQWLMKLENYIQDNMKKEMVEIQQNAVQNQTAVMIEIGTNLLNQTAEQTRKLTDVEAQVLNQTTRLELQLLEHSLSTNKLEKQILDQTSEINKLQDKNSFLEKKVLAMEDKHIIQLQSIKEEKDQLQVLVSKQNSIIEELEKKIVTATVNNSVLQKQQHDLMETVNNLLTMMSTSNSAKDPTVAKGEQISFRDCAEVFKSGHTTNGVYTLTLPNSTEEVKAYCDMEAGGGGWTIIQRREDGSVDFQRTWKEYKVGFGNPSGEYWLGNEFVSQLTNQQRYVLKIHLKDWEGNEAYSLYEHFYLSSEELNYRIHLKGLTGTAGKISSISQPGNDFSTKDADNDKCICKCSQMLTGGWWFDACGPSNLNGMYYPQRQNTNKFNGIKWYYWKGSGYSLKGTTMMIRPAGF


What was measured:
[1] = biological target: T1, human Ang2 protein (R&D Systems, …); test: ELISA
[2] = biological target: T2, human Ang2 protein (R&D Systems, …); test: indirect ELISA, human Ang2 coated at 0.5 µg/ml
Description: The antibodies were tested for their binding activities to Ang2 in an indirect ELISA. Briefly, 100 μl of 0.5 μg/ml human or mouse Ang2 proteins (R&D Systems; 623-AN-01M/CF for human Ang2, 7186-AN-025/CF for mouse Ang2) were pre-coated onto ELISA plates overnight at 4° C. On the next day, the plates were incubated with […] diluted primary antibodies, with initial concentration at 1 μg/ml. The plates were added with HRP-conjugated goat anti-mouse IgG (H+L) and then TMB for chromogenic reaction. The antibody-antigen binding curves were generated with optical density readings at 450 nm. Raw data was plotted using GraphPad Prism v6.02 software with four parameters, and best-fit values program was used to analyze the EC₅₀.

[3] = biological target: T3, membrane-anchored human Ang2 protein …; test: FACS
[4] = biological target: T4, membrane-anchored cyno Ang2 protein …; test: FACS

EC50 [1]	binding result [2]	EC50 [3]	EC50 [4]	Binder
5.59 ng/mL	–	–	–	33A3E2 (antibody, V domains shown) VH: EVKLVESGGGLVQPGGSRKLSCAASGFTFSDYGMVWVRQAPGKGLEWVAYIGSGRSTIYYADTVKGRFTISRDNPKNTLFLQMSSLRSEDTAMYYCAREDNGYSYAMDYWGQGTSVTVSS VL: DIQMTQSPASQSASLGESVTITCLTSQTIGTWLAWYQQKPGKSPQLLIYAATSLADGVPSRFSGSGSGTKFSFKISSLQAEDFVSYYCQQLYSIPLTFGAGTKLELK
4.47 ng/mL	–	–	–	39C1C4 (antibody, V domains shown) VH: EVKLVESGGGLVQPGGSRKLSCAASGFTFSDYGMVWVRQAPGKGLEWVAYIGSGRNTIYYADTVKGRFTISRDNPKNTLFLQMSSLRSEDTAMYYCVREDNGYSYAMDYWGQGTSVTVSS VL: DIQMTQSPASQSASLGESVTITCLASQTIGTWLAWYQQKPGKSPQLLIYAATSLADGVPSRFSGSGSGTKFSFKISSLQAEDFVSYYCQQLYSIPLTFGAGTKLELK
4.57 ng/mL	–	–	–	49B8G4 (antibody, V domains shown) VH: EVKLVESGGGLVQPGGSRKLSCAASGFTFSDYGMVWVRQAPGKGLEWIAYIGSGRNTIYYADTVKGRFTISRDNPKNTLFLQMSSLRSEDTAMYYCAREDNGYSYAMDYWGQGTSVTVSS VL: DIQMTQSPASQSASLGESVTVTCLASQTIGTWLAWYQQKPGKSPQLLIYAATSLADGVPSRFSGSGSGTKFSFKISSLQAEDFGSYYCQQLYSIPLTFGVGTKLELK
11.4 ng/mL	binds	0.155 nM	8.13 nM	42C3A4 (antibody, V domains shown, Hybridoma antibody purified with Protein-A beads) VH: EVKLEESGGGLVQPGGSMKLSCVASGITFSNYWMDWVRQSPEKGLEWVAEIRLKSNNYATHYAESVKGRFTISRDDSKNSVYLQMNNLRAEDTGIYYCTRGAPLFGGYYKGVYFDYWGQGTTLTVSS VL: SFVMTQTPKSLLASAGDRVTITCQASQSVSNEVAWYQQKPGQSPKLLIYYASSRYTGVPDRFAGSGYGTDFTFTISTVQAEDLAVYFCQQDYNSPYTFGGGTKLEIK
66.2 ng/mL	–	–	–	50H8E5C5 (antibody, V domains shown) VH: EVQLHQSGPELVKPGASVKMSCKASGYTFTNYYMHWVKQSHGKSIEWIGYIYPNNGDTNYNQKFKGKATLTVDKSSSTAYMELRSLTSEDSAVYSCAVVSYSNYVAGAMDYWGQGTSVTVSS VL: SIVMTQTPKFLLVSAGDRVTITCKASQSVSNDVAWYQQKPGQSPKLLIYFASNRYTGVPDRFTGSGYGTDFTFTISTVQAEDLAVYFCQQDYSSPYTFGGGTKLEIK
17.6 ng/mL	–	–	–	25C5D6F3 (antibody, V domains shown) VH: EVNLVESGGGLVQPGGSLRLSCATSGFTFSDFYMEWVRQPPGKRLEWIAASRNKANDYTTEYSASVKGRFIVSRDTSQSILYLQMNALRAEDTAIYYCTRGSYTNYTWFAYWGQGTLVTVSA VL: SIVMTQTPKFLLVSAGDRVTITCKASQSVSNDVAWYQQKPGQSPKLLIYFASNRYTGVPDRFTGSGYGTDFTFTISTVQAEDLAVYFCQQDYSSPYTFGGGTKLEIK
12.2 ng/mL	–	–	–	17F3E8 (antibody, V domains shown) VH: EVQLHQSGPELVKPGASVKMSCKASGYTFTNYYIHWVKQSHGKTIEWIGYIHPNNGDTSYNQKFKDKATLTVDKSSSTAYMDLRSLTSEDSAVYYCSVVSYSHYVAGALDNWGQGTSVTVSS VL: SIVMTQTPKFLLVSAGDRVTITCKASQSVSNDVAWYQQKPGQSPKLLIYFASNRYTGVPDRFTGSGYGTDFTFTISTVQAEDLAVYFCQQDYSSPYTFGGGTKLEIK
11 ng/mL	binds	0.14 nM	29.4 nM	49E4C2 (antibody, V domains shown, Hybridoma antibody purified with Protein-A beads) VH: EVKLEESGGGLVQPGGSMKLSCVASGITFSNYWMDWVRQSPEKGLEWVAEIRLKSNNYATHYAESVKGRFTISRDDSKSSVYLQMNNLRAEDTGIYYCTRGAPLFDGYYKGVYFDYWGQGTTLTVSS VL: STVMTQTPKSLLASAGDRVAITCKASQSVSNEVAWYQQKPGLSPKLLIYYASNRYTGVPDRFTGSGYGTDFTFTISTVQAEDLAVYFCQQDYNSPYTFGGGTKLEIK
11.2 ng/mL	–	–	–	15B4C6 (antibody, V domains shown) VH: QVQLKESGPGLVAPSQSLSITCTVSGFSLNGYGVNWVRQPPGKGLEWLGLIWNNGSTDYNSALKSRLTISKDNSKSLVFLKMNSLQTDDTARYYCARDPLYLLRGAMDYWGQGTSVTVSS VL: DIVLTQSPASLTVSLGQRATISCRASKSVSSSGYNFIYWYQQKPGQPPKLLIYLASNLESGVPARFSGSGSGTDFTLNIHPVEEEDAATYYCQHSRDLPLTFGAGTKLELK
4.62 ng/mL	–	–	–	7F10B2 (antibody, V domains shown) VH: EVQLQQSGPELVKPGSSVKISCKTSGYTFTDYNMDWVKQSHGKSLEWIGTINPKNGETSDNQKFKAKATLTVDKSSSTAYMELRSLTSEDSAVYYCAKNVDYSNYLFFPMDYWGQGTSVTVSS VL: SIVMTQTPKFLLVSAGDRVTITCKASQSVSNDVAWYQQKPGQSPKLLIYYASNRFTGVPDRFTGSGYGTDFTFTITTVQAEDLAVYFCQQDYSSRTFGGGTKLEIK
7.03 ng/mL	–	–	–	45C5A1 (antibody, V domains shown) VH: EVKLVESGGGLVQPGGSLKLSCAASGFTFSNYTMSWVRQTPEKRLELVAEISNSDGSAYYPDTVKGRFTISRDNAKKTLYLQMSSLKSEDTAMYYCARHGGLRVYYAIDYWGQGTSVTVSS VL: DIQMTQSPASQSASLGESVTITCLASQTIGPWLAWYQQKPGKSPQLLIYAATSLADGVPSRFSGSGSGTKFSFKISSLQAEDFVSYYCQQLYSDPLYTFGGGTKLEMK
9.28 ng/mL	–	–	–	15H10D12 (antibody, V domains shown) VH: DVQLQESGPGLVKPSQSLSLTCTVTGYSITSDYAWNWIRQFPGNRLEWMGYINYSGSTDYNPSLKSRISITRDTSKNQFFLQLNSVTTEDTATYYCARGVRGDMDYWGQGTSVTVSS VL: SIVMTQTPKFLLVSAGDRVTITCKASQSVSNDVAWYQQKPGQSPKLLIYYASNRYTGVPDRFTGSGYGTDFTFTISTVQADDLAVYFCQQDYSSPFTFGSGTKLEIK
6.6 ng/mL	–	–	–	31E2D4 (antibody, V domains shown) VH: QIQLVQSGPELKKPGETVKISCKASGYTLTNYGMNWVKQAPGKGLKWMGWINSYSGVPTYADDFKGRFAFSLETSASTAYLQINNLKNEDTATYFCARGENNYYGGSYDWGQGTTLTVSS VL: SIVMTQTPKFLLVSAGDRVTITCKASQSVSNDVAWYQQKPGQSPKLLIYYASNRYTGVPDRFTGSGYGTDFTFTISTVQAEDLAVYFCQQDYSSPLTFGAGTKLELR
9.97 ng/mL	–	–	–	27H11B5 (antibody, V domains shown) VH: DVQLQESGPGLVKPSQSLSLTCTVTGYSITSDYAWNWIRQFPGNKLEWMGYISYSGSTSYNPSLKSRISITRDTSKNQFFLQLNSVTTEDTATYYCARCVYGNYVGAMDYWGQGTSVTVSS VL: SIVMTQTPKFLLVSAGDRVTITCKASQSVTNDVAWYQQKPGQSPKLLIYYASNRYTGVPDRFTGSGYGTDFTFTISTVQTEDLAVYFCQQDYSSPLTFGAGTKLELK
